Changes are numbered by the printed parent chain. Names and notes keep the numbering of the source.
B1: Recombinant His-tagged WT αB-crystallin (natural protein, UniProt P02511 1-175, looked up)
chain: MDIAIHHPWIRRPFFPFHSPSRLFDQFFGEHLLESDLFPTSTSLSPFYLRPPSFLRAPSWFDTGLSEMRLEKDRFSVNLDVKHFSPEELKVKVLGDVIEVHGKHEERQDEHGFISREFHRKYRIPADVDPLTITSSLSSDGVLTVNGPRKQVSGPERTIPITREEKPAVTAAPKK
notes: αB-crystallin, wild type; Surmise: N-terminal His tag from pET 28b
B2: Recombinant His-tagged αB-crystallin N146D (natural protein, UniProt P02511 1-175, looked up)
chain: B1 chain with N146D
notes: αB-crystallin with the deamidation-mimicking change N146D, made by site-directed mutagenesis of the pET 28b construct of WT αB; Surmise: N-terminal His tag from pET 28b; also called αB N146D
B3: Recombinant His-tagged αB-crystallin N78D (natural protein, UniProt P02511 1-175, looked up)
chain: B1 chain with N78D
notes: αB-crystallin with the deamidation-mimicking change N78D, made by site-directed mutagenesis of the pET 28b construct of WT αB; Surmise: N-terminal His tag from pET 28b; also called αB N78D
B4: YFP αB NTD (N-terminal domain of αB-crystallin, 1–64 amino acids) (domain or fragment, UniProt P02511 1-64, looked up)
chain: MDIAIHHPWIRRPFFPFHSPSRLFDQFFGEHLLESDLFPTSTSLSPFYLRPPSFLRAPSWFDTG
notes: αB-crystallin N-terminal domain, residues 1-64; also called αB NTD-YFP; source: HeLa, transfected, in live cells
B5: YFP αB CTE (C-terminal extension of αB-crystallin, 147–175 amino acids) (domain or fragment, UniProt P02511 147-175, looked up)
chain: GPRKQVSGPERTIPITREEKPAVTAAPKK
notes: αB-crystallin C-terminal extension, residues 147-175; also called αB CTE-YFP; source: HeLa, transfected, in live cells
B6: YFP WT αB-crystallin (natural protein, UniProt P02511 1-175, looked up)
chain: B1 chain
notes: αB-crystallin, wild type, in pZS Yellow1-N1; Surmise: whole αB-crystallin (1-175, as the domain limits imply) with the fluorescent protein at the C-terminus (N1 vector); Expressed as ~46 kDa protein; also called WT YFP αB-crystallin; YFP αB; source: HeLa, transfected, in live cells
B7: YFP αB N78D crystallin (natural protein, UniProt P02511 1-175, looked up)
chain: B1 chain with N78D
notes: αB-crystallin N78D, made by site-directed mutagenesis of the pZS Yellow1-N1 construct of αB-crystallin; Same limits as m12; source: HeLa, transfected, in live cells
B8: YFP αB N146D crystallin (natural protein, UniProt P02511 1-175, looked up)
chain: B1 chain with N146D
notes: αB-crystallin N146D, made by site-directed mutagenesis of the pZS Yellow1-N1 construct of αB-crystallin; Same limits as m12; source: HeLa, transfected, in live cells
B9: YFP αB CD (core domain of αB-crystallin, 65–146 amino acids) (domain or fragment, UniProt P02511 65-146, looked up)
chain: LSEMRLEKDRFSVNLDVKHFSPEELKVKVLGDVIEVHGKHEERQDEHGFISREFHRKYRIPADVDPLTITSSLSSDGVLTVN
notes: αB-crystallin core domain, residues 65-146; also called αB CD-YFP; source: HeLa, transfected, in live cells

Biological target: T1, Recombinant His-tagged WT βA3-crystallin (UniProt P05813 1-215)
T1 construct: βA3-crystallin, wild type; Surmise: cloning into Nhe I/Xho I of pET 28b with a stop codon in the insert gives an N-terminal His tag; no cleavage is mentioned
Test: SPR; BIACORE 2000; βA3-crystallin immobilised on a CM5 chip by EDC/NHS to ~2500 RU; analytes 5 μM-25 μM at 20 μL/min; room temperature; 50 mM sodium phosphate, pH 7.8, 150 mM NaCl; regeneration with 1 M NaCl; duplicates; 1:1 Langmuir fit
Settings: both partners purified

Binder | Kd
B1 | 5.75 nM
B2 | 5.05 nM
B3 | 2.46 nM

Biological target: T2, CFP WT βA3-crystallin (UniProt P05813 1-215)
T2 construct: βA3-crystallin, wild type; Surmise: N1 vectors place the fluorescent protein at the C-terminus of the insert; Expressed as ~51 kDa protein; degraded products were also seen on blots; also called CFP βA3-crystallin; βA3- CFP; source: HeLa, transfected, in live cells
Test: FRET or BRET; FLIM-FRET in live HeLa cells co-transfected with CFP βA3-crystallin (donor) and YFP-tagged acceptors; donor life-time after 405 nm pulsed excitation; E = 1-TFRET/TCFP with TCFP 2.8 ns; 5-6 cells from 3 samples
Settings: partners not purified

Binder | FRET efficiency | mean life-time of the donor CFP βA3-crystallin
B4 | 32% | 2.1 ± 0.3 ns
B5 | 14% | 2.5 ± 0.2 ns
B6 | 18% | 2.4 ± 0.2 ns
B7 | 36% | 1.6 ± 0.3 ns
B8 | 22% | 2.2 ± 0.3 ns
B9 | 14% | 2.5 ± 0.2 ns

From PMC4691197 (PLoS ONE, 2015)
